Here are results for six molecules from patent US20210380707A1 (published 2021).

The target in test [1] is T1, human CD70 (human, UniProt P32970 1-193).
T1 construct: Endogenous CD70 in FFPE cells and tissue sections, detected by IHC; also called CD70 antigen
T1 sequence: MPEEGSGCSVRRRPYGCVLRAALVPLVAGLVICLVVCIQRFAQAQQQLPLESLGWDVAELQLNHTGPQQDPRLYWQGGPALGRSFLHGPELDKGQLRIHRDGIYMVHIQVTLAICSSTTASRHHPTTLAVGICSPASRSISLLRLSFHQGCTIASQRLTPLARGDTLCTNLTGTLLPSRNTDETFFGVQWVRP
As to the kind of experiment: IHC Leica BOND, ER2, FFPE ACHN cells, 8 µg/mL. The method, then: (§1) The following IHC evaluation was performed using a Leica BOND™ RX autostainer and BOND™ Polymer Refine Detection kit. These antibodies were tested at 5 μg/mL or 8 μg/mL concentration on a panel of CD70 positive cell line controls and a renal clear cell carcinoma tissue microarray (RCC TMA). All incubation steps were performed at room temperature with wash cycles in between each step unless otherwise stated. Briefly, pretreatment of FFPE slides was performed using the Bake and Dewax function. It was followed by a HIER step with Epitope Retrieval solution 2 (ER2) for 20 minutes at 100° C. Next, tissues were incubated with primary antibody for 60 minutes, followed by incubation with post primary and then polymer reagents for 15 minutes each. The antibody-antigen binding was visualized by brown DAB Refine stain for 10 minutes and counter-stained blue with Hematoxylin for 5 minutes. […] Upon completion of IHC staining experiment, stained tissues were scan using a Pannoramic MIDI II brightfield whole slide scanner and staining was visualized using CaseViewer software.

For test [2], the target named is T1, human CD70. As to the kind of experiment: IHC Leica BOND, ER2, FFPE HH cells, 5 µg/mL. The method, then:
as §1

The target of test [3] is T1, human CD70. As to the kind of experiment: IHC Leica BOND, ER2, FFPE ACHN cells, 5 µg/mL. Here is the method: as §1

B1: 11G12B6 (antibody, V domains shown)
VH: QVTLKESGPGILKPSQTLSLTCSFSGFSLSTSGLAVGWIRQPSGKGLEWLSHIWWNDDKYYNPSLKNQLTISKDTSRNQVFLKIISVDTADTATYYCSAYFGGKNYWGQGTALTVSS
VL: DIVMTQSPSSLTVTAGEKVTMSCKSSQSLLNSGNQKNYLTWYQQKPGQPPKLLVYWASTRESGVPDRFTGSGSGTDFTLTISTVQAEDLAVYYCQNDYSYPLTFGAGTKLELK
notes: Mouse hybridoma antibody, IgG1, Kappa; Only variable domains are printed
Consider B1, for which the binding result in the test with human CD70 [1] was “binds”.

B2: 3H11D12E7 (antibody, V domains shown)
VH: QIQLVQSGPELKKPGETVKISCKASGYTFTDYSMHWVKQAPGKGLKWMGWINTETGEPTYADDFKGRFAFSLETSASTAYLQINNLKNDDTATYFCARSFYRYDWYFDVWGAGTTVTVSS
VL: QIVLTQSPAIMSASPGEKVTITCSASSSVSFMHWFQQKPGTSPKLWIYSTSNLASGVPARFSGSGSGTSYSLTISRMEAEDAATYYCQQRTSFPPTFGGGTNLEIK
notes: Mouse IgG1, Kappa; Only variable domains are printed; also called recombinantly expressed 3H11D12E7
For B2, the binding result with human CD70 [2] was “binds”.

B3: 18F8A8 (antibody, IgG1, V domains shown)
VH: QVTLKESGPGILQPSQTLSLTCSFSGFSLSTSNMGVAWIRQPLGKGLEWLLYILWNDTKYYNPALKSRLSISKDTYNNQVFLKIVNVDTADTATYYCARIRRDYALDYWGQGTSVTVSS
VL: DIVMSQSPSSLAVSVGEKVTMNCKSSQSLLYSNNQKNYLAWYQQKPGQSPKLLIYWASTRESGVPDRFTGSGSGTDFTLTISSVKAEDLAVYYCQQYYIYPLAFGGGTKLEIK
notes: as for B1
In the case of B3, in the test with human CD70 [3], the binding result is recorded as “binds”.

B4: 19H7E4 (antibody, IgG1, V domains shown)
VH: QVTLKESGPGILQPSQTLSLTCSFSGFSLSTSNVGVGWIRQPSGKGLEWLLHILWNDGKYYNPALKSRLTISKDTSTNQVFLKIADVDTADSATYYCARLRRDYGMDYWGQGTSVTVSS
VL: DIVMSQSPSSLAVSVGEKVTMSCKSSQSLLYSYNQKNYLAWYQQKPGQSPKLLIYWASTRESGVPDRFTGSGSGTDFTLTISSVKAEDLAVYYCQQYYTYPYAFGGGTKLEIK
notes: as for B1
In the case of B4, the binding result with human CD70 [3] is reported as “binds”.

B5: 16D7C8 (antibody, IgG3, V domains shown)
VH: QVQLQQSGPELVKPGASVRISCKASGYTFTSFYIHWVKQRPGQGLEWIGWISPINININYNEKFKGKATLTADKSSSTVYMQLSSLTSEDSAVYFCEGTSENFDVWGAGTTVTVSS
VL: DVLMTQIPLSLPVSLGDQASISCRSTQNIVHSNGNTYLEWYLQKPGQSPKLLIYKVSNRFSGVPDRFRGSGSGTEFTLKITRVEADDLGVYYCFQGSHVPFTFGAGTKLELK
notes: Mouse hybridoma antibody, IgG3, Kappa; Only variable domains are printed
On to B5, for which the binding result in the test with human CD70 [3] is given as “binds”.

B6: 4E6G9 (antibody, V domains shown)
VH: QIQLVQSGPELKKAGETVKISCKASGYTFAAYSMHWVKQAPGKGLKWMGWINTETGEPTYADDFKGRFAFSLETSASTAYLQINNLKNEDTATYFCTRDDYDGGRFSYWYFAVWGAGTTVTVSS
VL: DIQMTQSPSSLSASLGGKVTITCKASQDINKYIAWYQHRPGKGPRLLIRYTSTLQPGIPSRFSGSGSGRDYSFSINNLEPEDIATYYCLQYDNLLTFGGGTKLEIK
notes: Mouse IgG1, Kappa; Only variable domains are printed; also called 4E6G9 antibody (Ms IgG1, kappa); recombinant antibody 4E6G9
For the molecule B6, in the test with human CD70 [3], the binding result is listed as “binds”.
